Measured values published in article PMC3377380.

Biological target: GST-Obsc_(6316–6345) (Rattus norvegicus)
Assay: SPR

Substance “sAnk1-I102F (MBP fusion) (domain or fragment)” has a fold slower dissociation than wild type of 3 times.
